Experimental data taken from PMC10786891, “Massively parallel profiling of RNA-targeting CRISPR-Cas13d”.
Positions count from the first letter of the chain named. Names may count otherwise.

T1: EsCas13d, nuclease-dead (Eubacterium siraeum, UniProt B0MS50, R295A;H300A;R849A;H854A)
T1 sequence: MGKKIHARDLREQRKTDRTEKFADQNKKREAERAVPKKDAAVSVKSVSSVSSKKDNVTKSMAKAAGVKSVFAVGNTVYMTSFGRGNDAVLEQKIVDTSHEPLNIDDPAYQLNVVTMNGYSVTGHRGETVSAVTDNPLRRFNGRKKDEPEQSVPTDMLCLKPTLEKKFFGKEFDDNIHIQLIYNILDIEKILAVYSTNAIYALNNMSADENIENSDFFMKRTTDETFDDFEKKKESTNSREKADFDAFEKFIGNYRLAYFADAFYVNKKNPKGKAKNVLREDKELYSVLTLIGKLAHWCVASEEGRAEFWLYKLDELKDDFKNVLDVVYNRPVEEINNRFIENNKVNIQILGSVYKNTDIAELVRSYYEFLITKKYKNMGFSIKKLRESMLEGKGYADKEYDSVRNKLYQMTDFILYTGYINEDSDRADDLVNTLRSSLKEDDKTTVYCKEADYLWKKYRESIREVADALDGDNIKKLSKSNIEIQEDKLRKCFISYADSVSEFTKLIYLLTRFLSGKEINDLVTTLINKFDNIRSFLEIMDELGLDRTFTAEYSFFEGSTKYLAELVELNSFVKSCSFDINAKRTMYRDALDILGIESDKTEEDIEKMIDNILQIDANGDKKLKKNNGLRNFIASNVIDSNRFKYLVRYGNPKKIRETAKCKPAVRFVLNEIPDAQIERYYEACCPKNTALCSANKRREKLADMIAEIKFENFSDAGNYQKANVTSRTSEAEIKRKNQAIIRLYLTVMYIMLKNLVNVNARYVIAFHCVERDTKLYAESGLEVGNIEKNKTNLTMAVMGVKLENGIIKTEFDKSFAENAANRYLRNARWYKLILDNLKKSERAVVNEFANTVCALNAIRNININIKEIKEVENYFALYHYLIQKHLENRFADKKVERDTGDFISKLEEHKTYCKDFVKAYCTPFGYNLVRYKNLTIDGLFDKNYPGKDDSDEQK

B1: target 1 A9C,G12A (mixed)
RNA 1: CACCCGUGCAAAAAUGCAGGGGUCUAAAACUGAGCGGAUAACCUCUCUAUGG
RNA 2: GGGAAUGGAUCCACAUCUACGAAUUCGUACCAUAGAGAGAUUCUCCGCUCACCGAGAUCGGAAGAGCACACGU
B2: target 1 insU 3' of 13,insC 3' of 13 (mixed)
RNA 1: B1 RNA 1
RNA 2: GGGAAUGGAUCCACAUCUACGAAUUCGUACCAUAGAGAGUCGUUAUCCGCUCACCGAGAUCGGAAGAGCACACGU
B3: target 1 C4A,C7U (mixed)
RNA 1: B1 RNA 1
RNA 2: B1 RNA 2 with A40G, C43A, C45U, C48A
B4: target 1 insC 3' of 15,insU 3' of 9 (mixed)
RNA 1: B1 RNA 1
RNA 2: B2 RNA 2 with A38C, G39A, U40G, C41G, G42U, U44A, A45U
B5: target 1 C4A,U8C (mixed)
RNA 1: B1 RNA 1
RNA 2: B1 RNA 2 with A40G, C43A, U44C, C48A
B6: target 1 G5C,A9G (mixed)
RNA 1: B1 RNA 1
RNA 2: B1 RNA 2 with A40G, C43G, G47C
B7: target 1 A9G,A16C (mixed)
RNA 1: B1 RNA 1
RNA 2: B1 RNA 2 with A36C, A40G, C43G
B8: target 1 U8G,C22U (mixed)
RNA 1: B1 RNA 1
RNA 2: B1 RNA 2 with C30U, A40G, C43A, U44G
B9: target 1 insU 3' of 14,insU 3' of 6 (mixed)
RNA 1: B1 RNA 1
RNA 2: B2 RNA 2 with G39U, U40G, C41G, G42U, U44A, A45U, U46C, C48U
B10: target 1 complement block 10-12 (mixed)
RNA 1: B1 RNA 1
RNA 2: B1 RNA 2 with A40C, U41A, U42A, C43A
B11: target 1 insC 3' of 17,insG 3' of 2 (mixed)
RNA 1: B1 RNA 1
RNA 2: GGGAAUGGAUCCACAUCUACGAAUUCGUACCAUAGCAGAGGUUAUCCGCUCGACCGAGAUCGGAAGAGCACACGU
B12: target 1 G13U,C22A (mixed)
RNA 1: B1 RNA 1
RNA 2: B1 RNA 2 with C30A, G39U, A40G, C43A
B13: target 1 G5U,C6U (mixed)
RNA 1: B1 RNA 1
RNA 2: B1 RNA 2 with A40G, C43A, C46U, G47U
B14: target 1 insA 3' of 21,insU 3' of 9 (mixed)
RNA 1: B1 RNA 1
RNA 2: GGGAAUGGAUCCACAUCUACGAAUUCGUACCAAUAGAGAGGUUAUUCCGCUCACCGAGAUCGGAAGAGCACACGU
B15: target 1 insU 3' of 20,insG 3' of 16 (mixed)
RNA 1: B1 RNA 1
RNA 2: B14 RNA 2 with A33U, A39G, G40A, U42G, A44U, U45A
B16: target 1 insA 3' of 8,insU 3' of 4 (mixed)
RNA 1: B1 RNA 1
RNA 2: B2 RNA 2 with U40G, C41U, G42U, U43A, U46C, C48G, G49C, C50U
B17: target 1 del9,del22 (mixed)
RNA 1: B1 RNA 1
RNA 2: GGGAAUGGAUCCACAUCUACGAAUUCGUACAUAGAGAGGUUUCCGCUCACCGAGAUCGGAAGAGCACACGU
B18: target 1 insU 3' of 12,insC 3' of 10 (mixed)
RNA 1: B1 RNA 1
RNA 2: B2 RNA 2 with U40G, C41U, G42U, U44C
B19: target 1 insU 3' of 17,insA 3' of 10 (mixed)
RNA 1: B1 RNA 1
RNA 2: B14 RNA 2 with A33U, U34A, A35G, G36U, U45A
B20: target 1 insC 3' of 11 (mixed)
RNA 1: B1 RNA 1
RNA 2: GGGAAUGGAUCCACAUCUACGAAUUCGUACCAUAGAGAGGUCUAUCCGCUCACCGAGAUCGGAAGAGCACACGU
B21: target 1 insU 3' of 7,insU 3' of 5 (mixed)
RNA 1: B1 RNA 1
RNA 2: B2 RNA 2 with U40G, C41U, G42U, U43A, A45C, C48G, G49U
B22: target 1 G15A,U19C (mixed)
RNA 1: B1 RNA 1
RNA 2: B1 RNA 2 with U33C, G37A, A40G, C43A
B23: target 1 insC 3' of 22,insC 3' of 15 (mixed)
RNA 1: B1 RNA 1
RNA 2: B14 RNA 2 with A32C, A39C, G40A, U42G, A44U, U45A
B24: target 1 insU 3' of 20,insU 3' of 9 (mixed)
RNA 1: B1 RNA 1
RNA 2: B14 RNA 2 with A33U
B25: target 1 insA 3' of 10,insC 3' of 5 (mixed)
RNA 1: B1 RNA 1
RNA 2: B2 RNA 2 with U40G, C41U, G42U, U43A, U44A, A45U, U46C, C48G, G49C
B26: target 1 U11C,G13U (mixed)
RNA 1: B1 RNA 1
RNA 2: B1 RNA 2 with G39U, A40G, U41C, C43A
B27: target 1 insC 3' of 12,insG 3' of 10 (mixed)
RNA 1: B1 RNA 1
RNA 2: B2 RNA 2 with U40G, G42U, U44G
B28: target 1 insA 3' of 17,insA 3' of 11 (mixed)
RNA 1: B1 RNA 1
RNA 2: B14 RNA 2 with A33U, U34A, A35G, G36A, U43A, A44U, U45A
B29: target 1 U8C,A14G (mixed)
RNA 1: B1 RNA 1
RNA 2: B1 RNA 2 with A38G, A40G, C43A, U44C
B30: target 1 insU 3' of 7,insA 3' of 2 (mixed)
RNA 1: B1 RNA 1
RNA 2: GGGAAUGGAUCCACAUCUACGAAUUCGUACCAUAGAGAGGUUAUCUCGCUCAACCGAGAUCGGAAGAGCACACGU
B31: target 1 insU 3' of 6,insU 3' of 6 (mixed)
RNA 1: B1 RNA 1
RNA 2: B30 RNA 2 with U46C, C47U, G48U, C49G, U50C, C51U, A52C
B32: target 1 C7G,A20C (mixed)
RNA 1: B1 RNA 1
RNA 2: B1 RNA 2 with A32C, A40G, C43A, C45G
B33: target 1 insG 3' of 4,insG 3' of 3 (mixed)
RNA 1: B1 RNA 1
RNA 2: B30 RNA 2 with U46C, C47G, G48C, C49G, C51G, A52C
B34: target 1 insG 3' of 18,insG 3' of 16 (mixed)
RNA 1: B1 RNA 1
RNA 2: B2 RNA 2 with A36G, G37A, A38G, U40A, C41G

Target: T1, EsCas13d, nuclease-dead
Assay: crRNA (strand 1, pre-loaded); Mg2+; 40 mM Tris-HCl pH 7.5, 150 mM NaCl, 6 mM MgCl2, 1 mM DTT, 0.1% Tween-20, 0.2 mg/ml BSA; 25 C; 10 min per concentration, then washed
Conditions: tags: His6-TwinStrep-SUMO cleaved; N-terminal SNAP kept (SNAP-Surface 488); label: 3' end held by stalled T7 RNA polymerase

Row | Binder | Kd
1 | B1 | 16.6 ± 1.9 nM
2 | B2 | 8.6 ± 0.5 nM
3 | B3 | 3.39 ± 0.26 nM
4 | B4 | 14.4 ± 0.8 nM
5 | B5 | 5.2 ± 0.6 nM
6 | B6 | 8.9 ± 0.5 nM
7 | B7 | 36.4 ± 1.8 nM
8 | B8 | 29.7 ± 2.6 nM
9 | B9 | 61 ± 8 nM
10 | B10 | 6.8 ± 0.4 nM
11 | B11 | ~38 nM
12 | B12 | 63 ± 27 nM
13 | B13 | 48 ± 4 nM
14 | B14 | 24.4 ± 2.1 nM
15 | B15 | 36 ± 4 nM
16 | B16 | 12.3 ± 0.7 nM
17 | B17 | 69 ± 9 nM

Row | Binder | Kd
18 | B18 | 45 ± 6 nM
19 | B19 | 25.2 ± 3.4 nM
20 | B20 | 29.8 ± 3.1 nM
21 | B21 | 14.5 ± 0.5 nM
22 | B22 | 61 ± 20 nM
23 | B23 | 40 ± 7 nM
24 | B24 | 20.5 ± 1.2 nM
25 | B25 | 10.1 ± 0.5 nM
26 | B26 | 60 ± 10 nM
27 | B27 | 12.3 ± 0.5 nM
28 | B28 | 24.5 ± 1.7 nM
29 | B29 | 25.7 ± 2 nM
30 | B30 | 18.7 ± 1.5 nM
31 | B31 | 11.7 ± 0.7 nM
32 | B32 | 86 ± 30 nM
33 | B33 | 8.2 ± 0.35 nM
34 | B34 | 55 ± 9 nM
